Measured values: article doi:10.1101/2025.07.24.666444

Assays:
[1] = target: AtPCO4 Y183F (Arabidopsis thaliana)
[2] = target: AtPCO4 Y73R (Arabidopsis thaliana)
[3] = target: AtPCO4 S107L (Arabidopsis thaliana)
[4] = target: AtPCO4 V105G (Arabidopsis thaliana)
[5] = target: AtPCO4 C173A (Arabidopsis thaliana); experiment: other fluorescence titration
[6] = target: AtPCO4 D177E (Arabidopsis thaliana); experiment: other fluorescence titration
[7] = target: AtPCO4 Y183F (Arabidopsis thaliana); experiment: other fluorescence titration
[8] = target: AtPCO4 Y73R (Arabidopsis thaliana); experiment: other fluorescence titration

catalytic constant (kcat) of RAP2.12 (2-15) oxidation [1]: 30 min⁻¹ | catalytic constant (kcat) of RAP2.12 (2-15) oxidation [2]: 1 min⁻¹ | Michaelis-Menten constant (KM) for RAP2.12 (2-15) in the activity assay [3]: 99 µM | Michaelis-Menten constant (KM) for RAP2.12 (2-15) in the activity assay [4]: 97 µM | Kd [5]: 250 µM | Kd [6]: 150 µM | Kd [7]: 3.5 mM | Kd [8]: 3 mM
Substance: RAP2.12_(2-15) peptide substrate (from UniProt Q9SSA8 2-15)
